According to PMC1282572, “Avidin related protein 2 shows unique structural and functional features among the avidin protein family” (BMC Biotechnology, 2005):
Changes are numbered by the printed parent chain. Numbers in names are those of the source.

B1: AVR6(C58S), produced in E. coli (natural protein, chicken)
chain: QTVARKCSLTGEWDNNLGSIMTIGAVNDNGEFNGTYITAVADNPGNIKLSPLLGIQHKRASQPTFGFTVHWNFSESTSVFVGQCFVDRSGKEVLKTKWLQRLAVDDISDDWKATRVGYNNFTRQRTVEE
notes: checked by ESI-MS on AVR2-b only; avidin related protein 6 (AVR6), chicken, with C58S; also called AVR6-b
B2: AVR2-b (AVR2 produced in E. coli) (natural protein, chicken)
chain: B1 chain with N16D, N33D, K48T, K112I, Y118N, N120D, R125H
notes: three additional residues left at the N-terminus after cleavage of the bacterial OmpA signal peptide; avidin related protein 2 (AVR2), chicken; expected Mr of the product 14307.8 Da; Not glycosylated (bacterial expression); Crystallised in complex with D-biotin
B3: Avidin related protein 2 (AVR2), produced in insect cells (natural protein, chicken, UniProt P56732 25-150, looked up)
chain: ARKCSLTGEWDNDLGSIMTIGAVNDNGEFDGTYITAVADNPGNITLSPLLGIQHKRASQPTFGFTVHWNFSESTSVFVGQCFVDRSGKEVLKTKWLQRLAVDDISDDWIATRVGNNDFTRQHTVEE
modifications: glycosylated (two potential glycosylation sites; both utilized to some extent)
notes: avidin related protein 2 (AVR2), chicken; The crystal structure PDB 1WBI is of the E. coli form AVR2-b
B4: AVR2(I109K) (natural protein, chicken, UniProt P56732 25-150, looked up)
chain: B3 chain with I109K
notes: avidin related protein 2 (AVR2), chicken, with I109K
B5: AVR4 (carries C122S), produced in insect cells (natural protein, chicken, UniProt P56734 25-150, looked up)
chain: ARKCSLTGKWTNNLGSIMTIRAVNSRGEFTGTYLTAVADNPGNITLSPLLGIQHKRASQPTFGFTVHWNFSESTTVFTGQCFIDRNGKEVLKTMWLLRSSVNDISYDWKATRVGYNNFTRLSTVEE
notes: avidin related protein 4 (identical to AVR5), chicken, with C122S; also called AVR5 (AVR4 is identical to AVR5)
B6: AVR4(K109I) (also carries C122S), produced in insect cells (natural protein, chicken, UniProt P56734 25-150, looked up)
chain: B5 chain with K109I
notes: avidin related protein 4 (identical to AVR5), chicken, with K109I and C122S; An E. coli form, AVR4(K109I)-b, was also made

Target: the molecule itself
Experiment: SEC; FPLC gel filtration, Superdex HR 10/30 column, 50 mM NaCO3 (pH 11.0), 150 mM NaCl; calibrated with IgG, BSA and ovalbumin; oligomeric state (tetramer)

Stoichiometry N, 4:
B1
B2
B3
B4
B5
B6
